The values below are quoted from earlier work in article doi:10.1101/2024.11.09.622800.

The term pKa denotes the pH at which an ionisable group is half protonated.

Series [1] deals with Asp85 (UniProt position 98, WARYADWLFTT).
Series [2] has as its target Asp75 (UniProt position 122, TWREADINYTS).
Series [3] addresses Cys48 (UniProt position 48, SLKASCLYGQL).
The target in series [4] is Glu325 (UniProt position 325, TLHMFEVPFLL).
Series [5] concerns the target Lys132 (UniProt position 214, KSEAQKKKEKL). Kind of series: stability.
Series [6] has as its target Asp118 (UniProt position 200, YVYKPDNTHEQ). Kind of series: stability.
Series [7] deals with Asp41 (UniProt position 123, LLLVDDPETKH). Kind of series: stability.
In series [8] the target is Asp26 (UniProt position 26, KLVVVDFSATW).
In series [9] the target is Glu172 (UniProt position 200, QVMATEGYQSS).

Like-named read-outs stand apart in the source and are kept apart here.

With “Bacteriorhodopsin (Halobacterium salinarum (not stated in the article))”, the figures for the pKa in series [1] (conformational state associated by the authors with PDB 1IW6) and in series [1] (conformational state associated by the authors with PDB 1UCQ (retinal forms a salt bridge with Asp85)) were 7.2 and 2.6, respectively.

With “Barnase (Bacillus amyloliquefaciens (not stated in the article))”, the pKa in [2] was 3.1.

On to Glutathione S-transferase (PDB 5X79), for which the pKa in [3] is 3.7.

On to “Lactose permease LacY (Escherichia coli (not stated in the article))”, for which the pKa in series [4] is listed as 10.5.

Take “Staphylococcal nuclease (SNase) A132K variant (Staphylococcus aureus; A132K)”: in [5], the pKa was 10.4.

For the substance “Staphylococcal nuclease (SNase) N118D variant (Staphylococcus aureus; N118D)”, the pKa in [6] is on record as 7.0.

“Staphylococcal nuclease (SNase) T41D variant (Staphylococcus aureus; T41D)”: in series [7], the pKa entry was “∼4”.

Regarding Thioredoxin (Homo sapiens), the pKa in [8] (oxidized) was 8.1; in series [8] (reduced) it was 9.9.

Turning to “Xylanase (endo-1,4-beta-xylanase), wild type (Bacillus circulans (not stated in the article))”, in [9], the pKa is reported as 6.7.

For “Xylanase, mutant with Glu78 covalently linked to substrate (PDB 3VZO) (Bacillus circulans (not stated in the article); not stated (the article says only that 'another nearby residue is mutated'))”, the pKa in series [9] (Glu78 covalently linked to substrate (covalent intermediate), nearby residue mutated) is 2.8.
